{
  "source": "patent US20130224191A1",
  "about": "“NOTUM PROTEIN MODULATORS AND METHODS OF USE” (priority 2010, published 2013)",
  "key": {"[1]": {"test": "4-MUH fluorescent hydrolase assay, activity of Notum constructs", "format": "biochemical", "procedure": "In addition to the assays described in Examples 23 and 24, a fluorescent esterase substrate, 4-methylumbelliferyl heptanoate (Sigma), can be used to measure the activity of hydrolases using standard assay conditions (Richardson and Smith, 2007, PMID: 17620441; Jacks and Kircher, 1967, PMID: 5582971). Briefly, 4-MUH was dissolved in DMSO to a final concentration of 1.2 mM. This substrate was diluted 1:10 into assay buffer (0.1M Tris, pH 7.5, 50 mM NaCl, 0.05% Brij) and incubated with defined amounts of Notum enzyme or point-mutated Notum enzymes, and enzymatic release of the fluorescent molecule 4-methylumbelliferone monitored (355 nm excitation, 460 nm emission) using a Wallac Victor3 Multilabel Counter (Perkin Elmer)."}, "[2]": {"test_system": "Wnt3A-mediated induction of luciferase in the 293.TCF cells", "test": "Wnt3A canonical signaling assay, bioactivity of Notum constructs", "format": "cell-based, human", "description": "To generate a stable population of cells that contain a reporter for the activation of canonical Wnt signaling, HEK 293T cells were transduced with a lentiviral vector, pGreenFirel-TCF (System Biosciences) which encodes a bifunctional GFP and luciferase reporter cassette under the control of a minimal CMV reporter linked to four tandem repeats of the transcriptional response elements for TCF. Transduced cells populations, termed 293.TCF cells, were subsequently used in a Wnt3A canonical signaling assay as follows: 2.5×10^4 293.TCF cells were plated per well of a 96-well tissue culture plate in 50 μL of serum-free DME medium. After 24 hours of serum starvation, 25 μL of various dilutions of conditioned medium (CM) from L/Wnt3A cells (ATCC CRL-2647; Willert, 2003) or undiluted CM from parental L-cells (ATCC CRL-2648) along with 25 μL of DMEM+0.2% FBS were added to each well. Eighteen hours after addition of CM, 100 μL of One-Glo solution (ProMega Corp.) was added to each well. The contents of each well were then mixed thoroughly to lyse the cells, 100 μL of lysate transferred to black 96-well plates, and the luminescence in each well read after 5 mins using a Wallac Victor3 Multilabel Counter (Perkin-Elmer Corp). […] More particularly, as the Wnt3A+ CM media is diluted from 25% down to approximately 3%, activation of the Wnt pathway is reduced with a corresponding decrease in luminescence.\nOnce the luciferase reporter system was established, assays for determining the bioactivity of various Notum modulators were performed as follows. 2.5×10^4 293.TCF cells were plated per well of a 96-well tissue culture plate in 50 μL of serum-free medium. After 23 hours of serum starvation, 25 μL of DMEM+0.2% FBS containing various Notum modulators at various concentrations (e.g., hNotum-His, hNotum-hFc, hNotum-S232A-His, murine Notum-His, murine Notum-hFc, macaque Notum-hFc, control protein-His or control protein-hFc obtained as per Examples 7, 8 and 13 above), were added to the cells. After 1 hour, 25 μL of Wnt3A or control L-cell CM were added to each well. Eighteen hours after addition of CM, 100 μL of One-Glo solution (ProMega Corp.) was added to each well, the contents of each well mixed thoroughly to lyse the cells, 100 μL of lysate transferred to black 96-well plates, and the luminescence read after 5 minutes."}, "[3]": {"test": "Esterase activity of Notum proteins on chromogenic substrates", "format": "biochemical", "conditions": "1 hour at 37° C.", "procedure": "Briefly, PNPA or PNPB were dissolved/diluted in isopropanol to final concentrations of 10 mM. These substrate solutions were diluted 1:10 into assay buffer (0.1% gum arabic, 2.3 mg/mL sodium dexoycholate, 1×PBS) and incubated with defined amounts of hNotum enzyme, and the enzymatic release of the chromophore p-nitrophenol monitored by absorbance measurements at 405 nm."}},
  "data": [
    {"molecule": "D340A: human Notum with D340A point mutation of the catalytic acidic residue (protein, UniProt Q6P988 20-496, looked up, variant D340A) Palmitoleoyl-protein …: SEGRKTWRRRGQQPPPPPRTEAAPAAGQPVESFPLDFTAVEGNMDSFMAQVKSLAQSLYPCSAQQLNEDLRLHLLLNTSVTCNDGSPAGYYLKESRGSRRWLLFLEGGWYCFNRENCDSRYDTMRRLMSSRDWPRTRTGTGILSSQPEENPYWWNANMVFIPYCSSDVWSGASSKSEKNEYAFMGALIIQEVVRELLGRGLSGAKVLLLAGSSAGGTGVLLNVDRVAEQLEKLGYPAIQVRGLADSGWFLDNKQYRHTDCVDTITCAPTEAIRRGIRYWNGVVPERCRRQFQEGEEWNCFFGYKVYPTLRCPVFVVQWLFAEAQLTVDNVHLTGQPVQEGLRLYIQNLGRELRHTLKDVPASFAPACLSHEIIIRSHWTDVQVKGTSLPRALHCWDRSLHDSHKASKTPLKGCPVHLVDSCPWPHCNPSCPTVRDQFTGQEMNVAQFLMHMGFDMQTVAQPQGLEPSELLGMLSNGS", "values": [
      {"measurement": "hydrolysis of the 4-MUH substrate", "setting": "[1]", "value": "no ability to hydrolyze the 4-MUH substrate"},
      {"measurement": "antagonism of Wnt3A-mediated induction of luciferase", "setting": "[2]", "value": "no ability to antagonize"}
    ]},
    {"molecule": "D141S: human Notum point mutated at D141 to the murine residue (protein) SEGRKTWRRRGQQPPPPPRTEAAPAAGQPVESFPLDFTAVEGNMDSFMAQVKSLAQSLYPCSAQQLNEDLRLHLLLNTSVTCNDGSPAGYYLKESRGSRRWLLFLEGGWYCFNRENCDSRYSTMRRLMSSRDWPRTRTGTGILSSQPEENPYWWNANMVFIPYCSSDVWSGASSKSEKNEYAFMGALIIQEVVRELLGRGLSGAKVLLLAGSSAGGTGVLLNVDRVAEQLEKLGYPAIQVRGLADSGWFLDNKQYRHTDCVDTITCAPTEAIRRGIRYWNGVVPERCRRQFQEGEEWNCFFGYKVYPTLRCPVFVVQWLFDEAQLTVDNVHLTGQPVQEGLRLYIQNLGRELRHTLKDVPASFAPACLSHEIIIRSHWTDVQVKGTSLPRALHCWDRSLHDSHKASKTPLKGCPVHLVDSCPWPHCNPSCPTVRDQFTGQEMNVAQFLMHMGFDMQTVAQPQGLEPSELLGMLSNGS", "values": [
      {"measurement": "hydrolysis of the 4-MUH substrate", "setting": "[1]", "value": "retained bioactivity"},
      {"measurement": "antagonism of Wnt3A-mediated induction of luciferase", "setting": "[2]", "value": "retained bioactivity"}
    ]},
    {"molecule": "D141N: human Notum point mutated at D141 to the macaque residue (protein) SEGRKTWRRRGQQPPPPPRTEAAPAAGQPVESFPLDFTAVEGNMDSFMAQVKSLAQSLYPCSAQQLNEDLRLHLLLNTSVTCNDGSPAGYYLKESRGSRRWLLFLEGGWYCFNRENCDSRYNTMRRLMSSRDWPRTRTGTGILSSQPEENPYWWNANMVFIPYCSSDVWSGASSKSEKNEYAFMGALIIQEVVRELLGRGLSGAKVLLLAGSSAGGTGVLLNVDRVAEQLEKLGYPAIQVRGLADSGWFLDNKQYRHTDCVDTITCAPTEAIRRGIRYWNGVVPERCRRQFQEGEEWNCFFGYKVYPTLRCPVFVVQWLFDEAQLTVDNVHLTGQPVQEGLRLYIQNLGRELRHTLKDVPASFAPACLSHEIIIRSHWTDVQVKGTSLPRALHCWDRSLHDSHKASKTPLKGCPVHLVDSCPWPHCNPSCPTVRDQFTGQEMNVAQFLMHMGFDMQTVAQPQGLEPSELLGMLSNGS", "values": [
      {"measurement": "hydrolysis of the 4-MUH substrate", "setting": "[1]", "value": "retained bioactivity"},
      {"measurement": "antagonism of Wnt3A-mediated induction of luciferase", "setting": "[2]", "value": "retained bioactivity"}
    ]},
    {"molecule": "macaque Notum-hFc: fusion construct of macaque Notum and human Fc region (protein, left off: a dimerising Fc or GST, fusion construct of macaque Notum and human Fc region) SEGRKTWRRRGQQPPPPPRTEAAPAAGQPVESFPLDFTAVEGNMDSFMAQVKSLAQSLYPCSAQQLNEDLRLHLLLNTSVTCNDGSPAGYYLKESRGSRRWLLFLEGGWYCFNRENCDSRYNTMRRLMSSRDWPRTRTGTGILSSQPEENPYWWNANMVFIPYCSSDVWSGASSKSEKNEYAFMGALIIQEVVRELLGRGLSGAKVLLLAGSSAGGTGVLLNVDRVAEQLEELGYPAIQVRGLADSGWFLDNKQYRHTDCVDTITCAPTEAIRRGIRYWNGVVPERCRRQFQEGEEWNCFFGYKIYPTLRCPVFVVQWLFDEAQLTVDNVHLTGQPVQESQRLYIQNLGRELRHTLKDVPASFAPACLSHEIIIRSHWTDVQVKGTSLPRALHCWDRSLHDSHKNSKTPLKGCPVHLVDSCPWPHCNPSCPTVRDQFTGQEMNVAQFLMHMGFDVQTVAQQQGPEPSKLLGL", "values": [
      {"measurement": "antagonism of Wnt3A-mediated induction of luciferase", "setting": "[2]", "value": "functionally antagonize"}
    ]},
    {"molecule": "murine Notum-His: His tagged murine Notum (protein, left off: small tags and cut ends) SEGRKTWRRRGQQPPQPPPPPPLPQRAEVEPGAGQPVESFPLDFTAVEGNMDSFMAQVKSLAQSLYPCSAQQLNEDLRLHLLLNTSVTCNDGSPAGYYLKESKGSRRWLLFLEGGWYCFNRENCDSRYSTMRRLMSSKDWPHTRTGTGILSSQPEENPHWWNANMVFIPYCSSDVWSGASPKSDKNEYAFMGSLIIQEVVRELLGKGLSGAKVLLLAGSSAGGTGVLLNVDRVAELLEELGYPSIQVRGLADSGWFLDNKQYRRSDCIDTINCAPTDAIRRGIRYWSGMVPERCQRQFKEGEEWNCFFGYKVYPTLRCPVFVVQWLFDEAQLTVDNVHLTGQPVQEGQWLYIQNLGRELRGTLKDVQASFAPACLSHEIIIRSYWTDVQVKGTSLPRALHCWDRSFHDSHKASKTPMKGCPFHLVDSCPWPHCNPSCPTIRDQFTGQEMNVAQFLMHMGFDVQTVAQQQGMEPSKLLGMLSNGN", "values": [
      {"measurement": "antagonism of Wnt3A-mediated induction of luciferase", "setting": "[2]", "value": "functionally antagonize"}
    ]},
    {"molecule": "murine Notum-hFc: fusion construct of mouse Notum and human Fc region (protein, left off: a dimerising Fc or GST, fusion construct of mouse Notum and human Fc region) SEGRKTWRRRGQQPPQPPPPPPLPQRAEVEPGAGQPVESFPLDFTAVEGNMDSFMAQVKSLAQSLYPCSAQQLNEDLRLHLLLNTSVTCNDGSPAGYYLKESKGSRRWLLFLEGGWYCFNRENCDSRYSTMRRLMSSKDWPHTRTGTGILSSQPEENPHWWNANMVFIPYCSSDVWSGASPKSDKNEYAFMGSLIIQEVVRELLGKGLSGAKVLLLAGSSAGGTGVLLNVDRVAELLEELGYPSIQVRGLADSGWFLDNKQYRRSDCIDTINCAPTDAIRRGIRYWSGMVPERCQRQFKEGEEWNCFFGYKVYPTLRCPVFVVQWLFDEAQLTVDNVHLTGQPVQEGQWLYIQNLGRELRGTLKDVQASFAPACLSHEIIIRSYWTDVQVKGTSLPRALHCWDRSFHDSHKASKTPMKGCPFHLVDSCPWPHCNPSCPTIRDQFTGQEMNVAQFLMHMGFDVQTVAQQQGMEPSKLLGMLSNGN", "values": [
      {"measurement": "antagonism of Wnt3A-mediated induction of luciferase", "setting": "[2]", "value": "functionally antagonize"}
    ]},
    {"molecule": "murine Notum: recombinant murine Notum protein, construct not stated (protein) SEGRKTWRRRGQQPPQPPPPPPLPQRAEVEPGAGQPVESFPLDFTAVEGNMDSFMAQVKSLAQSLYPCSAQQLNEDLRLHLLLNTSVTCNDGSPAGYYLKESKGSRRWLLFLEGGWYCFNRENCDSRYSTMRRLMSSKDWPHTRTGTGILSSQPEENPHWWNANMVFIPYCSSDVWSGASPKSDKNEYAFMGSLIIQEVVRELLGKGLSGAKVLLLAGSSAGGTGVLLNVDRVAELLEELGYPSIQVRGLADSGWFLDNKQYRRSDCIDTINCAPTDAIRRGIRYWSGMVPERCQRQFKEGEEWNCFFGYKVYPTLRCPVFVVQWLFDEAQLTVDNVHLTGQPVQEGQWLYIQNLGRELRGTLKDVQASFAPACLSHEIIIRSYWTDVQVKGTSLPRALHCWDRSFHDSHKASKTPMKGCPFHLVDSCPWPHCNPSCPTIRDQFTGQEMNVAQFLMHMGFDVQTVAQQQGMEPSKLLGMLSNGN", "values": [
      {"measurement": "esterase activity", "setting": "[3]", "value": "display esterase activity"}
    ]}
  ]
}
